Earlier results on one substance are cited in PMC7509490.

This data set concerns the target G-actin (Oryctolagus cuniculus) (UniProt P68135).

As to Profilin (from UniProt P07274), the Kd was 200 nM.
